The values that follow come from article PMC5931632, “A multi-antigenic MVA vaccine increases efficacy of combination chemotherapy against Mycobacterium tuberculosis” (PLoS ONE, 2018).

The assay addresses T1, Rv0287 (Mycobacterium tuberculosis, UniProt O53692 1-97).
T1 sequence: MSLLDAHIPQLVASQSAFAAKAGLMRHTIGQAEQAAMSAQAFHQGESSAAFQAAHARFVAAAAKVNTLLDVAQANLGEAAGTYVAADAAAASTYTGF
In words: pull-down. The conditions noted are these: both partners purified.

B1: TB10.4 (natural protein)
chain: MSQIMYNYPAMLGHAGDMAGYAGTLQSLGAEIAVEQAALQSAWQGDTGITYQAWQAQWNQAMEDLVRAYHAMSSTHEANTMAMMARDTAEAAKWGG
notes: also called Rv0288
As for B1, the binding result is recorded as “binds”.
